# According to US11427805B2, “Methods of producing human foregut endoderm cells expressing PDX1 from human definitive endoderm” (ViaCyte, Inc., priority 2005, dated 2022):
# Tests used:
# CXCR4 gene expression = assay: Q-PCR of CXCR4 gene expression in differentiating hESCs; type: cell-based, human
# Procedure: In these experiments, hESCs were differentiated by growing in RPMI medium (Invitrogen, Carlsbad, Calif.; cat #61870-036) supplemented with 0.5%, 2.0% or 10% FBS and either with or without 100 ng/ml activin A for 6 days. In addition, a gradient of FBS ranging from 0.5% to 2.0% over the first three days of differentiation was also used in conjunction with 100 ng/ml of activin A. After the 6 days, replicate samples were collected from each culture condition and analyzed for relative gene expression by real-time quantitative PCR. The remaining cells were fixed for immunofluorescent detection of SOX17 protein.
# (§1) hESCs were differentiated in RPMI media supplemented with 0.5%-2% FBS (increased from 0.5% to 1.0% to 2.0% over the first 3 days of differentiation) and either 0, 10, or 100 ng/ml of activin A. After 7 days of differentiation the cells were dissociated in PBS without Ca^2+/Mg^2+ containing 2% FBS and 2 mM (EDTA) for 5 minutes at room temperature. The cells were filtered through 35 μm nylon filters, counted and pelleted. […] Cells were resuspended at 5×10^6 cells/ml in buffer and analyzed and sorted using a FACS Vantage (Beckton Dickenson) by the staff at the flow cytometry core facility (The Scripps Research Institute). Cells were collected directly into RLT lysis buffer (Qiagen) for subsequent isolation of total RNA for gene expression analysis by real-time quantitative PCR.
# hESCs = assay: CXCR4+ cell number by flow cytometry; type: cell-based, human; details: 0, 10, or 100 ng/ml, 7 days (FIGS. 30A-C)
# Procedure: as §1, with “pelleted. Pellets were resuspended in a small volume of 50% human serum/50% normal donkey serum and incubated for 2 minutes on ice to block non-specific antibody binding sites. To this, 1 μl of mouse anti-CXCR4 antibody (Abcam, cat # ab10403-100) was added per 50 μl (containing approximately 10^5 cells) and labeling proceeded for 45 minutes on ice. Cells were washed by adding 5 ml of PBS containing 2% human serum (buffer) and pelleted. A second wash with 5 ml of buffer was completed then cells were resuspended in 50 μl buffer per 10^5 cells.” for “pelleted.”
molecule,measurement,setting,value
"activin A (protein, UniProt P08476 311-426, looked up, Inhibin beta A chain) Inhibin beta A chain: GLECDGKVNICCKKQFFVSFKDIGWNDWIIAPSGYHANYCEGECPSHIAGTSGSSLSFHSTVINHYRMRGHSPFANLKSCCVPTKLRPMSMLYYDDGQNIIKKDIQNMIVEECGCS",relative levels of CXCR4 gene expression,"CXCR4 gene expression; 0, 10, or 100 ng/ml, 7 days (FIG. 32)",dramatically increased with increasing dose
same,CXCR4 expression,"CXCR4 gene expression; 100 ng/ml (A100) vs no exogenous activin A (NF), 6 days (FIG. 26)",high
same,number of CXCR4+ cells as determined by flow cytometry,hESCs,increase dramatically
